± gives the standard deviation.

Drawing on the supplement of paper PMC10567573, this text covers protein stability index for 72 sequences.

The nature of this series: protein stability index of a GFP-peptide fusion (GPS, HEK-293T) (PSI 1-6); higher = more stable.
Where [1] appears, read: treatment: DMSO, c terminus: a fixed tail appended.
Setting [2] is: treatment: MLN4924 1 uM, 8 h, c terminus: a fixed tail appended.
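Note: 24-mer peptide tiles fused after GFP, lentivirally expressed, FACS-sorted into six equal bins by GFP/DsRed ratio, decoded by Illumina sequencing, PSI is the read-weighted mean bin number.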

For PDVRPPLGRGLVGGQEEASQEAGL [SEPHS2], the protein stability index worked out at 5.27 ± 0.14 under setting [1] and 5.31 ± 0.18 under setting [2]. With PEGSLSQTMAGSSPNTPQPVPEQS [FAM104A], the protein stability index by setting is: under setting [1], 5.47 ± 0.14; under setting [2], 5.45 ± 0.12.

On to PEKKSDQPMCEEHEEERINIYCLN [TRIM55], for which the protein stability index amounted to 4.79 ± 0.12 under setting [1] and 4.77 ± 0.35 under setting [2].

PENGEIKPASKPAGSSHTPSSQSS [ELOA2]: the protein stability index by setting is: under setting [1], 5.43 ± 0.25; under setting [2], 5.62 ± 0.067. For PENLLLASKCKGAAVKLADFGLAI [CAMK2B], in that order: 2.33 ± 0.31 and 2.56 ± 0.44.

Turning to PERLCSGPGIVGNVLVDPSARIGQ [GMPPB], the protein stability index by setting is: under setting [1], 3.92 ± 0.27; under setting [2], 3.89 ± 0.22. For PESLNSPVSGKAVFMEFGPPNQQM [DLX1], in that order: 3.79 ± 0.33 and 3.92 ± 0.26. For PFGFQTVTSDVNKLSSFYSLKLIK [SERPINB5], in that order: 2.15 ± 0.17 and 2.31 ± 0.41.

The sequence PFTPLHIKVKPKRVGIFLDYEAGT [TRIM39] registered a protein stability index under setting [1] of 2.45 ± 0.28 and a protein stability index under setting [2] of 2.67 ± 0.26.

As to PGGNVKGVWAPPAPGFGEDVPNRL [BEX5], the protein stability index turned out to be 3.95 ± 0.18 under setting [1] and 4.16 ± 0.23 under setting [2]. For PGHSGVSCEEVAASSASLEPMWSG [EMID1], under setting [2], the protein stability index was 5.08 ± 0.08.

Consider PGRDRVGREDEDGWETRGDRKARK [HES6], for which the protein stability index is, setting by setting: under setting [1], 5.49 ± 0.26; under setting [2], 5.48 ± 0.17. The corresponding values for PGTPPSYSSRTPGTPGTPSYPRTP [MAP2] are 4.72 ± 0.39 and 4.55 ± 0.34. For PGVQAPEDLEWERYRGRGSEEYRA [CHGB], in that order: 4.8 ± 0.17 and 5.18 ± 0.63. For PHYICTLKQPHLLLEKYSYYLISG [PNLIPRP1], in that order: 2.78 ± 0.81 and 2.74 ± 0.69.

For PIFQDSQDTEVFSWSDNERSSSRI [FAM104B], the protein stability index amounted to 4.34 ± 0.55 under setting [1] and 4.41 ± 0.26 under setting [2]. The corresponding values for PIYGLRQSILLNTRLQDCYVDSPA [C22orf31] are 2.69 ± 0.2 and 2.55 ± 0.38.

As to PKQSGSFRYLQGMLEAGEGGDWPG [PDLIM4], the protein stability index is, setting by setting: under setting [1], 3.79 ± 0.34; under setting [2], 3.96 ± 0.15.

For PKTPMDGADCGIQWWNAVFIMLLI [LYSMD4], the protein stability index is 2.5 ± 0.62 under setting [1] and 2.39 ± 0.41 under setting [2]. For PLAVEEDASSSTSTSSSFPSSFPS [MAGEA10], in that order: 5.31 ± 0.23 and 5.41 ± 0.12.

Turning to PLGVDESLFSYGLRESIASYLSLT [SLA], the protein stability index is 2.03 ± 0.19 under setting [1] and 2.3 ± 0.13 under setting [2].

As to PLHHQTQRFRLDNLLNMAYGVKSP [ELAVL3], the protein stability index came out at 2.5 ± 0.34 under setting [1] and 2.63 ± 0.27 under setting [2]. For PLKAQNDLDISRIKRGNTTLESTD [P2RY14], in that order: 5 ± 0.11 and 5.24 ± 0.24. For PLMPGMPPVMPGMPPGLHHQRKYT [ZNF207], in that order: 3.91 ± 0.39 and 4.11 ± 0.18. Regarding PLPPPPPAFKSMEVANFYYEADCL [CEBPB], the protein stability index was determined as 3.9 ± 0.31 under setting [1] and 3.62 ± 0.33 under setting [2].

For the sequence PLTGDKDDEEVDTHFASQEFFSAN [ADAMTSL2], the protein stability index runs as follows: under setting [1], 5.37 ± 0.11; under setting [2], 5.45 ± 0.19. The corresponding values for PMPLAPTRSHLWEAAQVVPDGLGL [TRIB3] are 3.48 ± 0.32 and 3.34 ± 0.23. PPHVLISRPSAPFTEASMMMSLTK [ESR2] displayed a protein stability index under setting [1] of 3.48 ± 0.084 and a protein stability index under setting [2] of 3.44 ± 0.18. The corresponding values for PPTYPTKYFGCELGAQTQFDVKND [EIF5] are 4.35 ± 0.17 and 4.494 ± 0.038. For PQEAVLQQLHQLPRGRLDLATQSL [LRRC45], in that order: 3.75 ± 0.15 and 3.74 ± 0.21. The corresponding values for PQRPRSAPRTSSCAERLQSEEQVS [FCHO1] are 4.85 ± 0.39 and 4.9 ± 0.24. With PRELASMSLVLHGNNLLVFGGTGI [KLHDC10], the protein stability index was determined as 2.46 ± 0.71 under setting [1] and 2.45 ± 0.59 under setting [2]. The sequence PRGSHSSALERLETKLHLLRQEMV [LURAP1L] showed a protein stability index under setting [1] of 2.53 ± 0.33 and a protein stability index under setting [2] of 2.69 ± 0.27. The corresponding values for PRLVSETAERKQEQKTGTEAEAAD [MFSD9] are 5.77 ± 0.12 and 5.61 ± 0.25. On to PRVRELLLDALSPEQLVLTLLEAE [ESR2], for which the protein stability index was 2.22 ± 0.22 under setting [1] and 2.22 ± 0.26 under setting [2]. Consider PSGFLQISDALIRRVHLTEDQWGK [TRIM9], for which the protein stability index runs as follows: under setting [1], 2.84 ± 0.25; under setting [2], 2.59 ± 0.24.

Take PSLGDSLESIPSLSQSPEPGRRGD [RTN2]: the protein stability index turned out to be 5.32 ± 0.45 under setting [1] and 5.48 ± 0.12 under setting [2]. With PSTTPPAHSSSNTIRSGISPNLNV [SASS6], the protein stability index is 4.29 ± 0.33 under setting [1] and 4.44 ± 0.28 under setting [2]. In the case of PSVEQAADSLDFDETFLATSFLQH [FOXJ1], the protein stability index is 4.43 ± 0.18 under setting [1] and 4.41 ± 0.4 under setting [2]. Regarding PSVPPTIKEEENSEEELAAATTSK [MYBL2], the protein stability index amounted to 5.52 ± 0.53 under setting [1] and 5.56 ± 0.4 under setting [2]. For the sequence PTKDRLEGLLAFKEKRPPRYKGE [AUH], the protein stability index is, setting by setting: (treatment: DMSO, c terminus: native) 2.11 ± 0.31; (treatment: MLN4924 1 uM, 8 h, c terminus: native) 4.4 ± 0.1. As to PTMPQPIEKVSVSTQTKKLSASSP [ZMYND11], the protein stability index runs as follows: under setting [1], 5.28 ± 0.18; under setting [2], 5.24 ± 0.25. The corresponding values for PTPANEERRGGLPPLPLHPGGDQG [WAS] are 5.38 ± 0.22 and 5.39 ± 0.065. For PTQGPETPRSPEGTTEAATQDGKE [PXN], in that order: 5.62 ± 0.19 and 5.48 ± 0.22. For PVLEDNYMYLVIEELTREAVAVDV [HAGHL], in that order: 2.34 ± 0.57 and 2.47 ± 0.17. For the sequence PVQGSSEDNLSLVCLPRSEDDDCD [DRICH1], the protein stability index is, setting by setting: under setting [1], 5.62 ± 0.2; under setting [2], 5.53 ± 0.21. For PWARGCGMFTFLSSVTAAVSGLLV [SLC2A12], in that order: 2.54 ± 0.3 and 2.57 ± 0.21. For PWTKEEDQKVIELVKKYGTKQWTL [MYBL2], in that order: 2.61 ± 0.24 and 2.72 ± 0.16. The corresponding values for QACSLPASCCIDPREDGASVNDQC [TSPAN10] are 5.06 ± 0.27 and 5.11 ± 0.25. For the sequence QAGPEATTSDPQDLDMKKHRCKCC [PALM], the protein stability index is, setting by setting: under setting [1], 5.06 ± 0.3; under setting [2], 5.17 ± 0.11. The corresponding values for QAQPAIPRPNRLFLRQLRASHLGN [C2CD2L] are 3.09 ± 0.33 and 3.08 ± 0.27. The corresponding values for QASKLRASKEEKEDWLSHALSRKK [FBF1] are 4.5 ± 0.24 and 4.54 ± 0.26. The corresponding values for QDFPVKKRKKLSTWKQELLKLMDR [ZNF75A] are 2.5 ± 0.11 and 2.53 ± 0.17. For the sequence QDIERGVQSEIFLHESYCMDTSHQ [LYSMD4], the protein stability index was 4.24 ± 0.15 under setting [1] and 4.25 ± 0.14 under setting [2]. For QDLLDVIRIKLDPCHPTVKNWRNF [EDARADD], in that order: 2.27 ± 0.75 and 2.35 ± 0.34.

As for QEKKLSFIEALIQQYQEQLDKSTK [TRIM63], the protein stability index is, setting by setting: under setting [1], 2.82 ± 0.19; under setting [2], 3.11 ± 0.5. The corresponding values for QFNVSGPGLLEEDNQWMTQINRLQ [NECAB1] are 3.02 ± 0.13 and 3.31 ± 0.19.

Sequence QGIFVEKYDPTIEDSYRKQVEVDA [RAP1B] showed a protein stability index under setting [1] of 4.72 ± 0.11 and a protein stability index under setting [2] of 4.44 ± 0.12.

Turning to QGIGSKIIKKVAEVALDKGCSQFR [SAT2], the protein stability index under setting [1] came to 2.44 ± 0.68 and the protein stability index under setting [2] came out at 2.27 ± 0.36. The corresponding values for QGLIRAGKVEAQHILASAPTDRNL [PYCR3] are 3.96 ± 0.16 and 4.07 ± 0.4. For QGSPAVDKERFTTLVQDLANAFQQ [CHIT1], in that order: 3.13 ± 0.25 and 3.48 ± 0.22.

QHAVQELTKAATSGVGIDGEVLSY [RHOBTB1]: the protein stability index reads like this: under setting [1], 4.5 ± 0.25; under setting [2], 4.57 ± 0.14. The corresponding values for QILDSLSYMRNENVISELNIEDYF [FBXO39] are 2.32 ± 0.29 and 2.2 ± 0.12. Consider QILKDTKSITSAMNELQHDLDVVS [TPH1], for which the protein stability index by setting is: under setting [1], 3.82 ± 0.24; under setting [2], 3.97 ± 0.092. The corresponding values for QIPTQNTQARQVMEREFNNLLALG [PPFIA4] are 3.56 ± 0.12 and 3.37 ± 0.21. The corresponding values for QKHYVYGPLPQSFDKEWVAKQTKR [COX4I1] are 3.55 ± 0.41 and 3.7 ± 0.28. The corresponding values for QKNGGGAYLVPYLVLLIIIGIPLF [SLC6A17] are 2.37 ± 0.061 and 2.83 ± 1.5.

QKRLKSKLLDHDNVKYLKKILDEL [GDAP1] yielded a protein stability index under setting [1] of 2.1 ± 0.24 and a protein stability index under setting [2] of 2.19 ± 0.22. For QLCEKAPKEATVMCEQCDVFYCDP [TRIM9], in that order: 4.33 ± 0.081 and 4.33 ± 0.25. Take QLHHVVYCFMIAYGTQRTLILESQ [FUT8]: the protein stability index by setting is: under setting [1], 3.12 ± 0.55; under setting [2], 3.17 ± 0.36. The corresponding values for QLNRRGEFIQEIRRQLEACQRERA [OAS1] are 4.09 ± 0.19 and 3.79 ± 0.075. For QLQAARNEYLLNLVATNAHLDHYY [FCHSD1], in that order: 2.58 ± 0.44 and 2.55 ± 0.73.
